Assay [1] deals with T1, Nck pY105 peptide (CGERLpYDLNMPAYVK).
T1 construct: also called pTyr (NCK) peptide; pTyr peptide (Nck pY105)
T1 peptide: CGERL[pY]DLNMPAYVK
Description: pTyr peptide dot blot.

Assay [2] deals with T2, Nck Y105 peptide (CGERLYDLNMPAYVK).
T2 construct: also called unphosphorylated Nck peptide
T2 peptide: CGERLYDLNMPAYVK
In words: pTyr peptide dot blot.

The target in assay [3] is T3, Eck (Ephrin A2) pY588 peptide (CLKPLKTpYVD).
T3 construct: also called Eck/EphA2 pTyr peptide
T3 peptide: CLKPLKT[pY]VD
Description: pTyr peptide dot blot.

Assay [4] addresses T4, Eck (Ephrin A2) Y588 peptide (CLKPLKTYVD).
T4 construct: also called unphosphorylated Eck peptide
T4 peptide: CLKPLKTYVD
In words: pTyr peptide dot blot.

Assay [5] deals with T5, FAK pY397 peptide (AVSVSETDDpYAEIIDEEDTYT) (phosphotyrosine at position 10 (pY397)).
T5 construct: also called FAK pTyr peptide
T5 peptide: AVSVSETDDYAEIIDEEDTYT
Description: pTyr peptide dot blot.

Assay [6] addresses T6, mammalian SCS (succinyl-CoA synthetase), 3-pHis on H299 (mammalian, UniProt P53597 41-346, 3-phosphohistidine at H299).
T6 construct: also called Phospho-SCS
In words: immunoblot of mammalian cell lysates. The procedure: (§1) Immunoblotting with anti-pHis antibodies: In general, immunoblotting with anti-pHis antibodies was performed with modifications to standard procedures to help preserve pHis for detection. Buffers were adjusted to pH 8-9 to stabilize pHis and methods were modified to avoid heating samples. Protein samples were prepared in pH 8.8 sample buffer (5×=10% SDS, 250 mM Tris-HCl, pH 8.8, 0.02% Bromophenol blue, 50% glycerol, 50 mM EDTA, 500 mM DTT) for electrophoresis. Mammalian whole cell lysates were prepared by rinsing 70-100% confluent 10 cm² dishes twice with 5 ml cold TD buffer (TBS −/−, pH 8). Cells were scraped directly into 2× pH 8.8 sample buffer, incubated on ice and a cup horn sonicator was used (3-5×5 sec bursts) to disrupt cells and shear DNA. Lysates were clarified by centrifugation (14,000×g for 5-15 min at 4° C.) and analyzed immediately using freshly prepared Bis-Tris polyacrylamide minigels with a modified, pH 8.8 stacking gel and either 10% or 12.5% resolving gels. Electrophoresis buffer recipes were as follows: Running Buffer: (1×20 L, pH 8.5) 20 g SDS, 60 g Trizma Base, 288 g glycine, dH₂0 to 20 L, Transfer Buffer: (1×4 L, pH 8.5) 56.7 g glycine, 4 g SDS, 12 g Trizma Base, 800 ml MeOH, dH₂0 to 4 L. All electrophoresis steps were performed at 4° C. and samples were resolved at 90-100V for 2-3 hr. […]
On the technique in general: In western blotting, separated proteins are transferred to a membrane and probed.

Assay [7] has as its target T7, ACLY (ATP-citrate lyase), 3-pHis on H760 (mammalian, UniProt P53396 1-1101, 3-phosphohistidine at H760).
T7 sequence (looked up): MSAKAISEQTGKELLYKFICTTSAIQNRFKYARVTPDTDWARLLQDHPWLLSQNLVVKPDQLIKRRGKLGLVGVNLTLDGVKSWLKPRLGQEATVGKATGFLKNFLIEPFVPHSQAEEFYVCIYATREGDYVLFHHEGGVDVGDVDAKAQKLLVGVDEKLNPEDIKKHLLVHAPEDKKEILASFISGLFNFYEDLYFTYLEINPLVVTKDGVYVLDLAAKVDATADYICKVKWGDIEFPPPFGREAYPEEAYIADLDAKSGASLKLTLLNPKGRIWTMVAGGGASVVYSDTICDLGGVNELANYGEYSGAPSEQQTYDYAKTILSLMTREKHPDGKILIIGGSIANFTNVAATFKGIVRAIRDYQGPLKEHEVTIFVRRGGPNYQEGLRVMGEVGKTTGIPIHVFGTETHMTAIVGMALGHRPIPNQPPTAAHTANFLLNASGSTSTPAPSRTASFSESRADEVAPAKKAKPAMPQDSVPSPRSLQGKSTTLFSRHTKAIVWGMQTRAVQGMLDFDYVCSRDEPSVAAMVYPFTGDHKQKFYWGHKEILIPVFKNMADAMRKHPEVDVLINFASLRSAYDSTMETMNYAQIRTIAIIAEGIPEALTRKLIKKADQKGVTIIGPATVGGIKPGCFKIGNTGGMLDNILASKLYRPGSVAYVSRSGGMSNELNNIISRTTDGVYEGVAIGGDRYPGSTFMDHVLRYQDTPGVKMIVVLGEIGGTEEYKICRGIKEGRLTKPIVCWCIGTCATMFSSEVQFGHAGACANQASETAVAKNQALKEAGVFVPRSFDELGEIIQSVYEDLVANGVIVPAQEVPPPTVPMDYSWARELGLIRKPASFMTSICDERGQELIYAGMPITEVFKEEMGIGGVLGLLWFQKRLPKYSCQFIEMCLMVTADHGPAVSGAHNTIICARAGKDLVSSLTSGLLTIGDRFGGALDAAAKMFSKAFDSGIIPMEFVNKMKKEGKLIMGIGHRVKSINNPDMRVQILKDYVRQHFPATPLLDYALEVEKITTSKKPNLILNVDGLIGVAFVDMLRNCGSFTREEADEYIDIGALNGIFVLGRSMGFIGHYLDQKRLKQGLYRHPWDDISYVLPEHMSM
Description: immunoblot of mammalian cell lysates. As to the method:
as §1

In assay [8] the target is T8, phospho-PGAM (phosphoglycerate mutase with 3-pHis on H11) (human, UniProt P18669 1-254, 3-phosphohistidine at H11).
T8 construct: Used both for the purified recombinant protein and for the endogenous protein in 293 cell lysates; also called pPGAM; in vitro phosphorylated PGAM
In words: immunoblot of HeLa and FLAG-NME1 293 cell lysates. As to the method:
FIGS. 6A-6E. 3-pHis Antibody Screening. (FIG. 6A) High throughput, slot blot screening of 3-pHis hybridoma subclones. Cell supernatants containing 3-pHis mAbs were screened as described using lysates from E. coli transformed with GST-PGAM. (FIG. 6B) Representative immunoblots using indicated subclones are shown. E. coli lysates identical to those used in ([…]) were treated with and without heating to 95° C. for 10 min to determine if the detected bands were heat-sensitive. Bacterial (FIG. 6B) and mammalian SCS (FIG. 6C) is detected by 3-pHis mAb SC44-8. (FIG. 6C) Mammalian cell lysates from HeLa and FLAG-NME1 293 cells were probed with mAb SC44-8. Phospho-SCS and ACLY, but not PGAM, is recognized by this mAb. (FIG. 6D) SCS H299 (SEQ ID NO: 69) is aligned with ACLY H760 (SEQ ID NO: 68) to highlight amino acids the flanking the pHis site are identical and have a G-pH-A-H-A motif that is different from the pHis site on PGAM at H11 (SEQ ID NO:70). […]
Immunoblotting with anti-pHis antibodies: In general, immunoblotting with anti-pHis antibodies was performed with modifications to standard procedures to help preserve pHis for detection. […] Lysates were clarified by centrifugation (14,000×g for 5-15 min at 4° C.) and analyzed immediately using freshly prepared Bis-Tris polyacrylamide minigels with a modified, pH 8.8 stacking gel and either 10% or 12.5% resolving gels.

Assay [9] has as its target T9, Peptide-1C (ACLY-like H760, 3-pTza) (N-terminus assumed; SMILES C[C@H](N)C(=O)NCC(=O)N[C@@H](C)C(=O)NCC(=O)N[C@@H](Cn1cc(P(=O)(O)O)nn1)C(=O)N[C@@H](C)C(=O)NCC(=O)N[C@@H](C)C(=O)NCC(N)=O).
T9 construct: also called AGAG-3-pTza-AGAG; A/G motif peptide (based on ACLY)
T9 peptide: AGAG[3‑pTza]AGAG-NH2
Description: 3-pTza peptide dot blot array. As to the method:
(§2) The 3-pHis antibodies bound only the 3-pTza peptides and the 1-pHis antibodies bound only the 1-pTza peptides, regardless of sequence (FIG. 4A). Identical membranes were probed with 1-pHis mAbs as part of our screening process to select mAbs with the broadest sequence recognition (FIG. 4B). […] 3-pHis mAb SC39-4 was able to detect all 3-pTza peptides down to 800 pg; however, binding to the KCa3.1 peptide was relatively poor (100 ng). […] SC44 detected the A/G motif peptide (based on ACLY) and the immunizing peptide library down to 160 pg and 800 pg respectively, confirming its sequence bias.
(§3) pTza peptide dot blot arrays: 1-pTza, 3-pTza or His was incorporated into synthetic peptides of defined sequences from mammalian proteins with mapped pHis sites. The peptides used were as follows: ACLY-like H760 (AGAG-X-AGAG, SEQ ID NO: 62), PGAM H11 (VLIR-X-GESA, SEQ ID NO: 63), NME1 H118 (RNII-X-GSDS, SEQ ID NO: 64), Histone H4 H18 (GAKR-X-RKVL, SEQ ID NO: 65), KCa3.1 H358 (VRLK-X-RKLR, SEQ ID NO: 66) and GNB1 H266 (MTYS-X-DNII, SEQ ID NO: 67) where X=His, 1-pTza or 3-pTza. Peptides were dissolved in water at a stock concentration of 1 mg/ml. 1:5 serial dilutions (500, 100, 20, […] ng/ul) were prepared for each peptide and 1 ul of each dilution was spotted on nitrocellulose membrane and allowed to dry for 1-2 hr at RT. […] Immunoblotting was performed as described above.

Assay [10] addresses T10, Peptide-2C (PGAM H11, 3-pTza) (mammalian, N-terminus assumed; SMILES …).
T10 construct: also called VLIR-3-pTza-GESA; PGAM peptide
T10 peptide: VLIR[3‑pTza]GESA-NH2
In words: 3-pTza peptide dot blot array. As to the method:
as §2, §3

In assay [11] the target is T11, Peptide-3C (NME1 H118, 3-pTza) (mammalian, N-terminus assumed; SMILES …).
T11 construct: also called RNII-3-pTza-GSDS
T11 peptide: RNII[3‑pTza]GSDS-NH2
In words: 3-pTza peptide dot blot array. As to the method: as §2, §3

In assay [12] the target is T12, Peptide-4C (Histone H4 H18, 3-pTza) (mammalian, N-terminus assumed; SMILES …).
T12 construct: also called GAKR-3-pTza-RKVL
T12 peptide: GAKR[3‑pTza]RKVL-NH2
Description: 3-pTza peptide dot blot array. As to the method: as §2, §3

We go through two molecules from patent US20170210824A1 (SALK INSTITUTE FOR BIOLOGICAL STUDIES, published 2017).

*1 amine or outer side, *2 acyl side, *3 side chain or, on linkers, in order; H or OH if unused. Where no end group is shown, it is not given here. [ ]: non-standard residue; d: D form. 3‑pTza = 3-phosphoryltriazolylalanine, non-hydrolysable phosphonate triazole analogue of 3-phosphohistidine, O=C([C@H](Cn1cc(P(=O)(O)O)nn1)N[*:1])[*:2]; pY = N[C@@H](Cc1ccc(OP(=O)(O)O)cc1)C(=O)O

T8 sequence (P18669 whole entry): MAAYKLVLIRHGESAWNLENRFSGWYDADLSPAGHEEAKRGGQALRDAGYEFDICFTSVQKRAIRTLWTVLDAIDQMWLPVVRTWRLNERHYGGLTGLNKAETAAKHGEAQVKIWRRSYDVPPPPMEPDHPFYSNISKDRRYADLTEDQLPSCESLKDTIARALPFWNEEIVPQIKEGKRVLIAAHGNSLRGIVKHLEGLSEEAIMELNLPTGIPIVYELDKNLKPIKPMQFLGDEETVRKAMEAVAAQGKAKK
T6 sequence (P53597 41-346): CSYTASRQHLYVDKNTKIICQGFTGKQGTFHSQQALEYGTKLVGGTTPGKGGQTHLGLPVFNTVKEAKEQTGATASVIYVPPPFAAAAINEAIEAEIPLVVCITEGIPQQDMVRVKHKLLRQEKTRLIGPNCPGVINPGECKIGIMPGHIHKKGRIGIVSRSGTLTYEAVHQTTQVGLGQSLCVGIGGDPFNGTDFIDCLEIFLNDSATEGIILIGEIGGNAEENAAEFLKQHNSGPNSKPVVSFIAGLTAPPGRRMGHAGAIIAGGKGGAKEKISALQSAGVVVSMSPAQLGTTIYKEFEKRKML

B1: 3-pHis mAb SC44-8 (antibody, V domains shown)
VH: ESGRGLVQPGGSLTLTCTASGFSIDSYGFSWVRQAPGKGLEHIGYLTAGGRAFYASWAKSRSTITRNTNENTVTLKMTSLTAADTATYFCAKLGSGNPVAIWGPGTLVTVSS
VL: DPVMTPTPSFTSAAVGGTVTINCQSSQSVWRNKNLAWYQQKPGQPPKRLIYAIATLDSGVPSRFSGSGSGTQFTLTISDVQCDDAATYYCVGHYGSENDAYYAFGGGTEVVVKG
notes: Rabbit hybridoma monoclonal IgG; also called SC44s (subclones of MC44)
As for B1, the binding result is recorded as “no binding” in assay [1]; “no binding” in [2]; “no binding” in assay [3]; “no binding” in [4]; “no binding” in [5]; “binds” in assay [6]. In addition, the results for the binding result in assay [7] and in assay [8] were “binds” and “no binding”, respectively.

B2: 3-pHis mAb SC56-2 (antibody, V domains shown)
VH: SVKESEGGLIKPGGILTLTCTASGFSLSSYGFSWVRQAPGKGLEHIGYLHANGRAYYATWAKSRSTITRNTNLNTVTLQLTSLTAADTATYFCAKIGSVSDVAIWGPGTLVTVSS
VL: DPVMTQTPSSTSAAVGGTVTINCQSSESIYNNKNLAWYQQKPGQSPRRLIYSISTLASGVSSRFKGSGSGTQFTLTISDVQCDDAATYYCVGYYYSGGYYYSGSAAYYAFGGGTEVVVKG
notes: Rabbit hybridoma monoclonal IgG; also called SC56s (subclones of MC56)
For B2, the binding result in assay [1] is recorded as “no binding”; in [2], “no binding”; in assay [3] it was “no binding”; in assay [4] it was “no binding”; in assay [5], “no binding”; in assay [9], “binds”. Moreover, the binding result in assay [10], in assay [11] and in [12] was “binds” in each case.
